The source of these data is patent US20250313626A1 (HARBOUR BIOMED SHANGHAI, published 2025).

Like-named read-outs stand apart in the source and are kept apart here.

Assay [1] has as its target T1, CD200R1a on PathHunter Jurkat CD200R1a signaling cells (Eurofins DiscoverX, 93-1136C19) (human, UniProt Q8TD46 25-348).
T1 sequence: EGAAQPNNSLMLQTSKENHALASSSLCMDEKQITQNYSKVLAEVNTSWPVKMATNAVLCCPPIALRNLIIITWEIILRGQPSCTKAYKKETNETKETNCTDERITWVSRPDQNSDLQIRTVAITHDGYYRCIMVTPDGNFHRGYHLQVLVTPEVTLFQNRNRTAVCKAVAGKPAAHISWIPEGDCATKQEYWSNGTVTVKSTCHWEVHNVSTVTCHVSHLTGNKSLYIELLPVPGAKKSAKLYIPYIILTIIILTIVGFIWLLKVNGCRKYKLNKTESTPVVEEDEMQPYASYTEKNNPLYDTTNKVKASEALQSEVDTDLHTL
The experiment in a line: cell-based or functional assay.

Another assay addresses T2, Mouse CD200R1-His (mouse, UniProt Q9ES57 26-238, limits assumed).
T2 sequence (looked up): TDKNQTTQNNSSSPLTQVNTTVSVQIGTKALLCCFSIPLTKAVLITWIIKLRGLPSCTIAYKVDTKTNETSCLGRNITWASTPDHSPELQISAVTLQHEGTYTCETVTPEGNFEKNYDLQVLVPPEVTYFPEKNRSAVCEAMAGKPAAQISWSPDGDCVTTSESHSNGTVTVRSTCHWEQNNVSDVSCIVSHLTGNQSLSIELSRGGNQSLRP
The experiment in a line: BLI (Octet), antibody captured on anti-human Fc sensor. Here is the method: To determine the binding affinities of the anti-CD200R1 antibodies to CD200R1a proteins of various species (mouse, human, Cynomolgus macaques), bio-layer interferometry (BLI) assays were carried out using an Octet® RED96e instrument. Antibodies were produced as described in Example 3.4 and diluted to 5 μg/mL using freshly prepared 1× kinetic buffer (10× kinetic buffer (Catalog #18-1105, ForteBio) was diluted with PBS(Catalog #E607016-0500, BBI Life Sciences)) and were captured on the surface of anti-human Fc (AHC) Octet biosensors (Catalog #18-5060, ForteBio) to reach capture levels between 0.9-1.2 nm. The biosensors having the captured anti-CD200R1 antibodies were then dipped in wells containing 2-fold serial dilutions of CD200R1a proteins to detect association signals, followed by dissociation steps in wells containing 1× kinetic buffer. The sensorgrams were recorded and the reference signals were subtracted before curve fitting using ForteBio Data Analysis 11.0 software. Association rates (kₒₙ) and dissociation rates (koff) were calculated using a simple one-to-one Langmuir binding model. The equilibrium dissociation constant (KD) was calculated as the ratio of koff/kₒₙ.
(In BLI a coated tip is dipped into the sample, and binding shifts an interference pattern.)

In assay [2] the target is T3, human CD200R1 isoform a on CHOK1 cells (CHOK1/hCD200R1a) (human, UniProt Q8TD46 25-348).
T3 construct: also called CHOK1/CD200R1a
T3 sequence: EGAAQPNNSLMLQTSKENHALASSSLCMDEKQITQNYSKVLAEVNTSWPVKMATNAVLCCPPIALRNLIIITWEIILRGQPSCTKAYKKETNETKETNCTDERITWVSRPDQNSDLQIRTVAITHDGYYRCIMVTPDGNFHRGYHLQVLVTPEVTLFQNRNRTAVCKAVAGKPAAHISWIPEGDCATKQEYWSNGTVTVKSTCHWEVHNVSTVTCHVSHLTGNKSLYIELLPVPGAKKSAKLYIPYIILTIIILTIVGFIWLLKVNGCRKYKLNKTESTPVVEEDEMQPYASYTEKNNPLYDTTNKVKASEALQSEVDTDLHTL
The experiment in a line: flow cytometry, CHOK1/hCD200R1a cells (FITC-Mean); table beside the curves. Here is the method:
(§1) This example is intended to investigate the in vitro binding activity of human anti-CD200R1 monoclonal antibodies to human/Cynomolgus macaques CD200R1a expressed on the surface of cells. The anti-CD200R1 antibodies were produced as described in Example 3.4 and the binding experiments at the cell level were performed using CHOK1/hCD200R1a and CHOK1-cynoCD200R1a.
(§2) Briefly, CHOK1/hCD200R1a cells and CHOK1-cynoCD200R1a cells were digested, and collected, and then were resuspended in PBS containing 2% BSA, respectively. The cell density was adjusted to 1×10⁶ cells/mL. The cells were seeded in a 96-well V-bottom plate (Corning, #3894) at 100 μL/well, followed by the addition of test antibodies and reference antibodies in a series diluted concentration, each at 100 μL/well. The cells were incubated away from light at 4° C. for 1 h. Thereafter, the cells in each well were rinsed twice with 100 μL of pre-cooled PBS containing 2% BSA, and centrifuged at 500 g at 4° C. for 5 min, and then the supernatant was discarded. 100 μL of fluorescent secondary antibody (Alexa Fluor 488-conjugated AffiniPure Goat Anti-Human IgG, Fcγ Fragment Specific, Jackson, #109-545-098, diluted in a 1:1000 ratio) was added in each well, and the plate was incubated away from light at 4° C. for 1 h. The cells in each well were rinsed twice with 100 μL of pre-cooled PBS containing 2% BSA, and centrifuged at 500 g at 4° C. for 5 min, and then the supernatant was discarded. Finally, the cells in each well were resuspended in 200 μL of pre-cooled PBS containing 2% BSA, and the fluorescence signal values were read using a BD CantoII flow cytometer.

For assay [3], the target named is T4, Cynomolgus macaques CD200R1 isoform a on CHOK1 cells (CHOK1/cynoCD200R1a) (Cynomolgus macaques).
T4 chain: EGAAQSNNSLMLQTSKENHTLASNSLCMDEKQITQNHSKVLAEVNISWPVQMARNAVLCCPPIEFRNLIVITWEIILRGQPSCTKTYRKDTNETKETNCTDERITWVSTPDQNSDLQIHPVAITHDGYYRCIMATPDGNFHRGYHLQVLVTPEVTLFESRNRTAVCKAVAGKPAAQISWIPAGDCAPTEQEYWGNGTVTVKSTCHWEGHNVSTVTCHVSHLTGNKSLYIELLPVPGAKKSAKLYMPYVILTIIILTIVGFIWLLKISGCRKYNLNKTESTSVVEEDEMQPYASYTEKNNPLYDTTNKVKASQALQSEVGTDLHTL
The experiment in a line: flow cytometry, CHOK1/cynoCD200R1a cells (APC-A Mean); table beside the curves.

Assay [4] concerns the target T3, human CD200R1 isoform a on CHOK1 cells …. Briefly: flow cytometry blocking assay: biotin-labelled human CD200 binding to CHOK1/hCD200R1a cells; y axis Inhibition %. On the procedure:
(§3) In brief, CHOK1/hCD200R1a cells were digested and resuspended in 2% BSA in PBS. […] The cells were placed at 4° C. and incubated for 1 hour in the dark. […] 100 μL/well of pre-cooled PBS containing 2% BSA was added to rinse the cells twice, centrifugation was performed at 500 g, 4° C. for 5 minutes, and the supernatant was discarded. Fluorescent secondary antibody (PE Streptavidin, BD, Cat #: 554061, 1:200) was added at 100 μL/well, and incubation was performed at 4° C. for 30 minutes in the dark. The cells were washed twice with 200 μL/well of pre-cooled PBS, and were centrifuged at 500 g, 4° C. for 5 minutes, and the supernatant was discarded. Finally, 200 μL/well of pre-cooled PBS was used to resuspend the cells, and the fluorescence signal values were read using ACEA Novocyte 3000 flow cytometer. IC50 values were calculated.
A general note: A flow cytometer gives signals particle by particle.

For assay [5] the target is unchanged. The experiment in a line: flow cytometry, CHOK1/hCD200R1a cells (FITC-Mean); table beside the curves, head without unit, x axis Log [Ab] (nM).
For assay [6] the target is unchanged. The experiment in a line: flow cytometry blocking assay: antibody titrated against biotin-labelled human CD200 binding to CHOK1/hCD200R1a cells; head prints EC50 without unit, x axis Log [Ab] (nM), y axis Inhibition %. On the procedure:
as §3

In assay [7] the target is T1, CD200R1a on PathHunter Jurkat CD200R1a …. The experiment in a line: cell-based or functional assay. The source holds these as a separate data set.
The target in assay [8] is T3, human CD200R1 isoform a on CHOK1 cells …. The experiment in a line: flow cytometry, CHOK1/hCD200R1a cells (FITC-Mean); table beside the curves. Here is the method: as §1, §2
The source holds these as a separate data set.

Assay [9] has as its target T4, Cynomolgus macaques CD200R1 isoform a …. The experiment in a line: flow cytometry, CHOK1/cynoCD200R1a cells (APC-A Mean); table beside the curves.
In assay [10] the target is T3, human CD200R1 isoform a on CHOK1 cells …. Briefly: flow cytometry blocking assay: biotin-labelled human CD200 binding to CHOK1/hCD200R1a cells; y axis Inhibition %. Here is the method: as §3
The source holds these as a separate data set.

Assay [11] shares this target. Briefly: flow cytometry, CHOK1/hCD200R1a cells (FITC-Mean); table beside the curves, head without unit, x axis Log [Ab] (nM). This is another data set of the same source.
The target is the same in assay [12]. The experiment in a line: flow cytometry blocking assay: antibody titrated against biotin-labelled human CD200 binding to CHOK1/hCD200R1a cells; head prints EC50 without unit, x axis Log [Ab] (nM), y axis Inhibition %. Here is the method:
as §3
The source holds these as a separate data set.

For orientation: EC50 means the concentration giving half of the maximal effect. A lower EC50 goes with greater potency.

B1: PR005512 (antibody, human IgG1, kappa, L234A L235A, V domains shown)
VH: QVQLVESGGGVVQPGRSLRLSCVASGFTFSSYGMHWVRQAPGKGLEWVAIIWNDGSNRYYADSVKGRFTISRDNSKNTLYLQMNSLRAEDTAVYYCARDRIVGAGFDYWGQGTLVTVSS
VL: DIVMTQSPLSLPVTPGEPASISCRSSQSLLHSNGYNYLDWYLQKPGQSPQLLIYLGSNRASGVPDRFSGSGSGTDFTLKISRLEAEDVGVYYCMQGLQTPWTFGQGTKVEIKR
notes: also called PR60-012; PRE04512
As to B1, the “IC50 of the inhibition of CD200-induced PathHunter Jurkat CD200R1a luminescence (CHOK1/hCD200 cells as CD200 source); head without unit, x axis Log [Ab] (nM)” value in assay [1] came out at 2.63 nM. For the same molecule, in the assay with Mouse CD200R1-His, the binding result was “no binding”.

B2: PR007974 (antibody, human IgG1, kappa, V domains shown)
VH: QVQLVESGGGVVQPGRSLRLSCAASGFTFSYYGFHWVRQAPGKGLEWLGLIWSDARHKDYADSVKGRFTISRDNSKNTLYLQMNSLRAEDTAVYYCARDRIVGEGFDYWGQGTLVTVSS
VL: DIVMTQSPLSLPVTPGEPASISCRSSQSLLHRSGYNYLDWYLQKPGQSPQLLIYLGSYRASGVPDRFSGSGSGTDFTLKISRVEAEDVGVYYCQQGIQTTYTFGQGTKLEIKR
notes: PTM variant of PR006839 (human IgG1)
As to B2, the “MFI(Max)” value in assay [2] is 18900. In addition, the EC50 in assay [3] was found to be 6820 pM; in [5], 277 pM; in [6], 240 pM. Besides, the “MFI (MAX)” value in assay [3] was determined as 52200. Further, the “Blocking(Max)” value in assay [4] is 98%.

B3: PR007444 (antibody, human IgG1, kappa)
heavy: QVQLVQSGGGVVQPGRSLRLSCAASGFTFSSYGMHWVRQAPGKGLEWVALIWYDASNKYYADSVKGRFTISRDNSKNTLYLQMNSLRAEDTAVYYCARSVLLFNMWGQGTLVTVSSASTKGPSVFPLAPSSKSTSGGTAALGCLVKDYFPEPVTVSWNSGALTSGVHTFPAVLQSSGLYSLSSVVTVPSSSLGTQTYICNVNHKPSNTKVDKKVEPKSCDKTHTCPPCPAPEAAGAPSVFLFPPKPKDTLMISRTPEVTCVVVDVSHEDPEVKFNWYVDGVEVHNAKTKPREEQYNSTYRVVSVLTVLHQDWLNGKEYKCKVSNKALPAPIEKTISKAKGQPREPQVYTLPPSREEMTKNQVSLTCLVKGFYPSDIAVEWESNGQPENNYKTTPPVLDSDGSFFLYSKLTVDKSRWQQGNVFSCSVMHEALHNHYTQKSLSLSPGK
light: DIQMTQSPPSLSASVGDRVTITCRASQSISSYLNWFQQKAGKAPKLLISATSNLQSGVPSRFSGSGSGTDFTLTISSLQPEDLATYYCQQTYSSPYTFGQGTKVEIKRTVAAPSVFIFPPSDEQLKSGTASVVCLLNNFYPREAKVQWKVDNALQSGNSQESVTEQDSKDSTYSLSSTLTLSKADYEKHKVYACEVTHQGLSSPVTKSFNRGEC
notes: PTM variant of PR006895 (human IgG1)
Regarding B3, the “IC50 of the inhibition of CD200-induced PathHunter Jurkat CD200R1a luminescence (CHOK1/hCD200 cells as CD200 source)” value in assay [7] was determined as 755 pM. In addition, the “MFI(Max)” value in assay [8] came out at 10800. The EC50 in assay [9] turned out to be 8740 pM; in assay [11], 150 pM; in assay [12] it was 92.6 pM. In [9], the “MFI (MAX)” value was 51700. Further, the “Blocking(Max)” value in assay [10] was determined as 86.6%.
